Patent publication US20110059889A1 (SYNTONIX PHARMACEUTICALS, published 2011)
Where two headings read alike, the source gives them in different places. Bridge positions count the residues as written; N and C are the ends. Square brackets hold non-standard residues; d marks the D form. Ends that are not written are not given here. NMeY = CN[C@@H](Cc1ccc(O)cc1)C(=O)O; NMeL = CN[C@@H](CC(C)C)C(=O)O; Pen = CC(C)(S)[C@H](N)C(=O)O; Sar = CNCC(=O)O

Experiments:
[1] = target: T1, soluble human FcRn (shFcRn) (human, UniProt P55899 24-297; P61769 21-119); assay: IgG competition ELISA
T1 construct: Biotinylated for the ELISA, amine-coupled to a CM5 chip for SPR; also called biotinylated shFcRn
T1 sequence (P55899 24-297 limits assumed, chain 1 of 2): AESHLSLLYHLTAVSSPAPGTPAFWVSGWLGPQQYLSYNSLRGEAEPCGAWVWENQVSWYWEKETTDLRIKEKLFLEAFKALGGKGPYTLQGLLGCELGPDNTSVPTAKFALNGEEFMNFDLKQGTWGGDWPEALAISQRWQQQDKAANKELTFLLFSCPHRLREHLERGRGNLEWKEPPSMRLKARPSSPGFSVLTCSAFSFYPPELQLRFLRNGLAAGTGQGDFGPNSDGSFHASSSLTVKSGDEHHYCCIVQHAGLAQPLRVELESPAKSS
T1 sequence (P61769 21-119 limits assumed, chain 2 of 2): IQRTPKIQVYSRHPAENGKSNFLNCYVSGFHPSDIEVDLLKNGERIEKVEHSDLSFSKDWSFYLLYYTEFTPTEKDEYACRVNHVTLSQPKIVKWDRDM

[2] = target: T1, soluble human FcRn (shFcRn); assay: SPR pH 6; Peptide No. 74: Pen, G and lower-case a (QRF-Pen-TGHF-G-a-LYPCNGP)
Description: (§1) The following steps were performed to cross-link soluble human or cynomolgus FcRn to the dextran surface of a CM5 sensor chip (Biacore AB, Uppsala, Sweden) by an amine coupling reaction involving 1-ethyl-(3-dimethylaminopropyl)-carbodiimide hydrochloride (EDC) (Biacore AB, Uppsala, Sweden) and N-hydroxysuccinimide (NHS) (Biacore AB, Uppsala, Sweden) as recommended by Biacore (BIAapplications Handbook, version AB, section 4.2, Biacore AB, Uppsala, Sweden). […] Residual sites on the FcRn flow cell were blocked with 1 M ethanolamine hydrochloride pH 8.5 (Biacore AB, Uppsala, Sweden). A control flow cell was blocked with ethanolamine for reference subtraction. For analysis of the monomeric peptides, FcRn was coated to a final density of 4000-5000 response units (RU). For analysis of the peptide dimers, FcRn was coated to a density of 2000-2500 RU. All SPR measurements were performed using a BIACORE 3000 Instrument (Biacore AB Uppsala, Sweden). For measurements done at either pH 6 or pH 7.4, experiments were performed in 50 mM phosphate, 100 mM sodium chloride, 0.01% surfactant P20 (Biacore AB, Uppsala, Sweden).
(§2) Ten, 2-fold dilutions of the peptide were injected over the FcRn-CM5 chip at a rate of 20 μl/min for 2 min. The peptide was dissociated from the chip for 2.5 minutes with buffer. […] Sensorgrams were generated and analyzed using BiaEval software version 3.1 (Biacore AB, Uppsala, Sweden). […]

[3] = target: T1, soluble human FcRn (shFcRn); assay: SPR pH 6; Peptide No. 75: Pen, lower-case a-G (QRF-Pen-TGHF-a-G-LYPCNGP)
Description: as §1, §2

[4] = target: T1, soluble human FcRn (shFcRn); assay: SPR pH 6; Peptide No. 189: Pen, lower-case a, Sar (QRF-Pen-TGHF-a-Sar-LYPCNGP)
Description: as §1, §2

[5] = target: T1, soluble human FcRn (shFcRn); assay: SPR pH 6
Description: as §1
(§3) Ten, 2-fold dilutions of the peptide were injected over the FcRn-CM5 chip at a rate of 20 μl/min for 2 min. The peptide was dissociated from the chip for 2.5 minutes with buffer. Any remaining peptide was removed from the chip with a 30 second injection of HBS-P buffer (Biacore AB, Uppsala, Sweden) at a rate of 30 μl/min. Sensorgrams were generated and analyzed using BiaEval software version 3.1 (Biacore AB, Uppsala, Sweden). The equilibrium RU observed for each injection was plotted against concentration. The equilibrium KD values were derived by analysis of the plots using the steady state affinity model included in the BiaEval software.

[6] = target: T1, soluble human FcRn (shFcRn); assay: SPR pH 7.4
Description: as §1, §2

[7] = target: T1, soluble human FcRn (shFcRn); assay: IgG competition ELISA; remark: listed apart in the source
Description: (§4) The wells were coated with 100 μl/well of 1 μg/ml biotinylated-shFcRn in Buffer A. The plate was sealed and incubated at 37° C. for 2 hours. Afterwards, the plate was washed with 200 μl/well of Buffer B (Buffer B: 100 mM MES pH 6, 150 mM NaCl, 0.5% BSA IgG-free (Jackson ImmunoResearch, West Grove, Pa.), 0.05% Tween-20). […] To allow for mixing, the plate was rocked for 2 minutes, sealed and incubated at 37° C. for 2 hours. […] The plate was covered, incubated for 30 minutes at room temperature and washed 4 times with 200 μl/well of ice-cold buffer B. SureBlue TMB substrate solution (100 μl/well, KPL, Gaithersburg, Md.) was added and the plate was allowed to incubate at room temperature until color developed, which took 5 to 10 minutes. Once color developed, 100 μl/well of TMB stop solution (KPL, Gaithersburg, Md.) was added and the absorbance was measured at 450 nm. The data was plotted as absorbance vs. peptide concentration to derive the inhibitory concentration 50% (IC₅₀) values.

[8] = target: T1, soluble human FcRn (shFcRn); assay: IgG competition ELISA; remark: listed apart in the source
Description: as §4

[9] = target: T1, soluble human FcRn (shFcRn); assay: SPR pH 6; Peptide No. 113: Pen, NMeLeu (QRF-Pen-TGHFGG-NMeLeu-YPCNGP)
Description: as §1, §2

[10] = target: T1, soluble human FcRn (shFcRn); assay: SPR pH 6; Peptide No. 114: Pen, NMeTyr (QRF-Pen-TGHFGGL-NMeTyr-PCNGP)
Description: as §1, §2

[11] = target: T1, soluble human FcRn (shFcRn); assay: SPR pH 6; remark: listed apart in the source
Description: as §1, §3

[12] = target: T1, soluble human FcRn (shFcRn); assay: SPR pH 7.4; Peptide No. 146: Pen for Cys and NMeLeu for Leu (RF-Pen-TGHFGG-NMeLeu-YPCNGP)
Description: as §1, §2

[13] = target: T1, soluble human FcRn (shFcRn); assay: SPR pH 7.4; remark: listed apart in the source
Description: as §1, §2

[14] = target: T1, soluble human FcRn (shFcRn); assay: SPR pH 6; remark: listed apart in the source
Description: as §1, §2

[15] = target: T1, soluble human FcRn (shFcRn); assay: IgG competition ELISA; remark: listed apart in the source
Description: as §4

[16] = target: T1, soluble human FcRn (shFcRn); assay: SPR pH 6; remark: listed apart in the source
Description: as §1, §2

[17] = target: T1, soluble human FcRn (shFcRn); assay: IgG competition ELISA; remark: listed apart in the source
Description: as §4

[18] = target: T1, soluble human FcRn (shFcRn); assay: IgG competition ELISA; remark: listed apart in the source
Description: as §4

B1: Peptide No. 74 (peptide)
peptide: QRF[Pen]TGHFG[dA]LYPCNGP-NH2
modifications: disulfide 4-14; N-terminus assumed
SMILES: CC(C)C[C@@H]1NC(=O)[C@@H](C)NC(=O)CNC(=O)[C@H](Cc2ccccc2)NC(=O)[C@H](Cc2c[nH]cn2)NC(=O)CNC(=O)[C@H]([C@@H](C)O)NC(=O)[C@@H](NC(=O)[C@H](Cc2ccccc2)NC(=O)[C@H](CCCNC(=N)N)NC(=O)[C@@H](N)CCC(N)=O)C(C)(C)SSC[C@@H](C(=O)N[C@@H](CC(N)=O)C(=O)NCC(=O)N2CCC[C@H]2C(N)=O)NC(=O)[C@@H]2CCCN2C(=O)[C@H](Cc2ccc(O)cc2)NC1=O
B1 gave an IC50 [1] of 2000 nM and a Kd [2] of 480 nM.

B2: Peptide No. 75 (peptide)
peptide: QRF[Pen]TGHF[dA]GLYPCNGP-NH2
modifications: disulfide 4-14; N-terminus assumed
SMILES: CC(C)C[C@@H]1NC(=O)CNC(=O)[C@@H](C)NC(=O)[C@H](Cc2ccccc2)NC(=O)[C@H](Cc2c[nH]cn2)NC(=O)CNC(=O)[C@H]([C@@H](C)O)NC(=O)[C@@H](NC(=O)[C@H](Cc2ccccc2)NC(=O)[C@H](CCCNC(=N)N)NC(=O)[C@@H](N)CCC(N)=O)C(C)(C)SSC[C@@H](C(=O)N[C@@H](CC(N)=O)C(=O)NCC(=O)N2CCC[C@H]2C(N)=O)NC(=O)[C@@H]2CCCN2C(=O)[C@H](Cc2ccc(O)cc2)NC1=O
B2 gave a Kd [3] of 490 nM.

B3: Peptide No. 189 (peptide)
peptide: QRF[Pen]TGHF[dA][Sar]LYPCNGP-NH2
modifications: disulfide 4-14; N-terminus assumed
SMILES: CC(C)C[C@@H]1NC(=O)CN(C)C(=O)[C@@H](C)NC(=O)[C@H](Cc2ccccc2)NC(=O)[C@H](Cc2c[nH]cn2)NC(=O)CNC(=O)[C@H]([C@@H](C)O)NC(=O)[C@@H](NC(=O)[C@H](Cc2ccccc2)NC(=O)[C@H](CCCNC(=N)N)NC(=O)[C@@H](N)CCC(N)=O)C(C)(C)SSC[C@@H](C(=O)N[C@@H](CC(N)=O)C(=O)NCC(=O)N2CCC[C@H]2C(N)=O)NC(=O)[C@@H]2CCCN2C(=O)[C@H](Cc2ccc(O)cc2)NC1=O
Binder B3 has a Kd [4] of 190 nM.

B4: Peptide No. 296 (peptide)
peptide: QRF[Pen]HGHFGGLYPCNGP-NH2
modifications: disulfide 4-14; N-terminus assumed
SMILES: CC(C)C[C@@H]1NC(=O)CNC(=O)CNC(=O)[C@H](Cc2ccccc2)NC(=O)[C@H](Cc2c[nH]cn2)NC(=O)CNC(=O)[C@H](Cc2c[nH]cn2)NC(=O)[C@@H](NC(=O)[C@H](Cc2ccccc2)NC(=O)[C@H](CCCNC(=N)N)NC(=O)[C@@H](N)CCC(N)=O)C(C)(C)SSC[C@@H](C(=O)N[C@@H](CC(N)=O)C(=O)NCC(=O)N2CCC[C@H]2C(N)=O)NC(=O)[C@@H]2CCCN2C(=O)[C@H](Cc2ccc(O)cc2)NC1=O
B4 was tested, and the Kd [5] was 150 nM, the Kd [6] was 960 nM and the IC50 [7] was 3000 nM.

B5: Peptide No. 113 (peptide)
peptide: QRF[Pen]TGHFGG[NMeL]YPCNGP-NH2
modifications: disulfide 4-14; N-terminus assumed
SMILES: CC(C)C[C@H]1C(=O)N[C@@H](Cc2ccc(O)cc2)C(=O)N2CCC[C@H]2C(=O)N[C@H](C(=O)N[C@@H](CC(N)=O)C(=O)NCC(=O)N2CCC[C@H]2C(N)=O)CSSC(C)(C)[C@H](NC(=O)[C@H](Cc2ccccc2)NC(=O)[C@H](CCCNC(=N)N)NC(=O)[C@@H](N)CCC(N)=O)C(=O)N[C@@H]([C@@H](C)O)C(=O)NCC(=O)N[C@@H](Cc2c[nH]cn2)C(=O)N[C@@H](Cc2ccccc2)C(=O)NCC(=O)NCC(=O)N1C
With B5 the IC50 [8] was 1600 nM and the Kd [9] was 86 nM.

B6: Peptide No. 114 (peptide)
peptide: QRF[Pen]TGHFGGL[NMeY]PCNGP-NH2
modifications: disulfide 4-14; N-terminus assumed
SMILES: CC(C)C[C@@H]1NC(=O)CNC(=O)CNC(=O)[C@H](Cc2ccccc2)NC(=O)[C@H](Cc2c[nH]cn2)NC(=O)CNC(=O)[C@H]([C@@H](C)O)NC(=O)[C@@H](NC(=O)[C@H](Cc2ccccc2)NC(=O)[C@H](CCCNC(=N)N)NC(=O)[C@@H](N)CCC(N)=O)C(C)(C)SSC[C@@H](C(=O)N[C@@H](CC(N)=O)C(=O)NCC(=O)N2CCC[C@H]2C(N)=O)NC(=O)[C@@H]2CCCN2C(=O)[C@H](Cc2ccc(O)cc2)N(C)C1=O
B6 was tested, and the Kd [10] was 92000 nM.

B7: Peptide No. 146 (peptide)
peptide: RF[Pen]TGHFGG[NMeL]YPCNGP-NH2
modifications: disulfide 3-13; N-terminus assumed
SMILES: CC(C)C[C@H]1C(=O)N[C@@H](Cc2ccc(O)cc2)C(=O)N2CCC[C@H]2C(=O)N[C@H](C(=O)N[C@@H](CC(N)=O)C(=O)NCC(=O)N2CCC[C@H]2C(N)=O)CSSC(C)(C)[C@H](NC(=O)[C@H](Cc2ccccc2)NC(=O)[C@@H](N)CCCNC(=N)N)C(=O)N[C@@H]([C@@H](C)O)C(=O)NCC(=O)N[C@@H](Cc2c[nH]cn2)C(=O)N[C@@H](Cc2ccccc2)C(=O)NCC(=O)NCC(=O)N1C
B7 gave a Kd [11] of 59 nM, an IC50 [8] of 2100 nM and a Kd [12] of 280 nM.

B8: Peptide No. 147 (peptide)
peptide: RF[Pen]TGHFG[Sar]YPCNGP-NH2
modifications: disulfide 3-12; N-terminus assumed
SMILES: C[C@@H](O)[C@@H]1NC(=O)[C@@H](NC(=O)[C@H](Cc2ccccc2)NC(=O)[C@@H](N)CCCNC(=N)N)C(C)(C)SSC[C@@H](C(=O)N[C@@H](CC(N)=O)C(=O)NCC(=O)N2CCC[C@H]2C(N)=O)NC(=O)[C@@H]2CCCN2C(=O)[C@H](Cc2ccc(O)cc2)NC(=O)CN(C)C(=O)CNC(=O)[C@H](Cc2ccccc2)NC(=O)[C@H](Cc2c[nH]cn2)NC(=O)CNC1=O
notes: copied as printed (RF-Pen-TGHFG-Sar-YPCNGP); a Leu after Sar may be missing in the print
For B8, the Kd [11] was 58 nM, the Kd [13] was 350 nM and the IC50 [8] was 1000 nM.

B9: Peptide No. 142 (peptide)
peptide: RF[Pen]TGHFG[dP]LYPC-NH2
modifications: disulfide 3-13; N-terminus assumed
SMILES: CC(C)C[C@@H]1NC(=O)[C@H]2CCCN2C(=O)CNC(=O)[C@H](Cc2ccccc2)NC(=O)[C@H](Cc2c[nH]cn2)NC(=O)CNC(=O)[C@H]([C@@H](C)O)NC(=O)[C@@H](NC(=O)[C@H](Cc2ccccc2)NC(=O)[C@@H](N)CCCNC(=N)N)C(C)(C)SSC[C@@H](C(N)=O)NC(=O)[C@@H]2CCCN2C(=O)[C@H](Cc2ccc(O)cc2)NC1=O
Binder B9 has a Kd [14] of 140 nM and an IC50 [15] of 1500 nM.

QRFCTGHFGGLXPCNGP (Pen 4; 3-pyridylAla 12; disulfide 4-14; C-terminal amide) [Peptide No. 67] was tested, and the Kd [16] was 34000 nM and the IC50 [17] was 92000 nM.

B10: Peptide No. 216 (peptide)
peptide: QRFCTGHFGXYPCNGP
modifications: Pen 4; X 10 = L,L-Friedinger's lactam (dipeptide mimetic in place of Gly-Leu); disulfide 4-13; C-terminal amide
In the case of B10, the IC50 [18] is reported as 19000 nM.

B11: Peptide No. 194 (peptide)
peptide: QRFCTGHFGXYPCNGP
modifications: Pen 4; X 10 = D,L-Friedinger's lactam (dipeptide mimetic in place of Gly-Leu); disulfide 4-13; C-terminal amide
B11 was tested, and the IC50 [18] was 4900 nM.
